Results on one molecule are retold here after US20240174992A1 (PROMEGA, published 2024).

Experiment [1] concerns the target HaloTag[22-297](Q145H+P154R)-6×His. In words: purified system, 80 nM large fragment, peptide titration, TMR ligand.
In experiment [2] the target is T1, HaloTag[22-297](Q145H+P154R).
T1 construct: also called LgHT variant
Put plainly: apparent affinity from peptide titration of the large fragment in E. coli lysate, JF646 fluorescence complementation; signal approaches saturation.

The next experiment concerns the target T2, HaloTag[22-297](M2F).
T2 construct: also called LgHT (M2F variant); Large HaloTag
Put plainly: apparent affinity from peptide titration (up to 1 mM) of the large fragment in E. coli lysate, JF646 fluorescence complementation; signal did not saturate.

T2 sequence (chain, as listed by the source): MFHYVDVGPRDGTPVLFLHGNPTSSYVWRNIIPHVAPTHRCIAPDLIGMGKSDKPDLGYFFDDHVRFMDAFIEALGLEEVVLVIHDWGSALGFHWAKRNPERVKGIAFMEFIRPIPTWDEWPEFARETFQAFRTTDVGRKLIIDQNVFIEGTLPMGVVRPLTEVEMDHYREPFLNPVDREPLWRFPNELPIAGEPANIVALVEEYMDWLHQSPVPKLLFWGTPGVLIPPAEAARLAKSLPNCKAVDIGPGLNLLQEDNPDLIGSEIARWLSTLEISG
Chain of HaloTag[22-297](Q145H+P154R)-6×His (chain, as listed by the source Q145H P154R Q145H P154R): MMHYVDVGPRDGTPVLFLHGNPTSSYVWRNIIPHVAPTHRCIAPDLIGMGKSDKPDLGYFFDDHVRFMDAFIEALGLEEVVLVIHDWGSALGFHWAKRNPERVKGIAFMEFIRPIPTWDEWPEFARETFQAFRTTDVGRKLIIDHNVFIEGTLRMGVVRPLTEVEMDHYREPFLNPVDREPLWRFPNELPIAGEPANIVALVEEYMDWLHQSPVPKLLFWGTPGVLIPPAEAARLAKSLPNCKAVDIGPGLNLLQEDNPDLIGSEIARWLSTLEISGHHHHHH
T1 sequence (chain, as listed by the source Q145H P154R Q145H P154R): as the sequence (chain, as listed by the source) above, with F2M, Q145H, P154R counted along it

B1: synthetic HaloTag[3-19] peptide (peptide)
peptide: EIGTGFPFDPHYVEVLG
notes: also called HT(3-19); SmHT
With B1, in experiment [1], the binding result is recorded as “binds”. Also, the Kd in experiment [2] is roughly 1000 nM; with HaloTag[22-297](M2F), greater than 100000 nM.
